Results: FireProtDB (doi:10.1093/protein/15.6.455)

Conditions: pH 3.6, Thermal, DSC, sodium acetate 50 mM, reversible: yes, whole UniProt chain shown; for heat capacity change of unfolding / unfolding enthalpy (calorimetric): 62.6 °C
[1] = Pseudomonas aeruginosa (strain ATCC 15692 / DSM 22644 / CIP 104116 / JCM 14847 / LMG 12228 / 1C / PRS 101 / PAO1)
[2] = Hydrogenobacter thermophilus (strain DSM 6534 / IAM 12695 / TK-6)

Protein | heat capacity change of unfolding [1] | unfolding enthalpy (calorimetric) [1] | Tm [1] | heat capacity change of unfolding [2] | unfolding enthalpy (calorimetric) [2] | Tm [2]
Cytochrome c-551 wild type, P00099 (protein) MKPYALLSLLATGTLLAQGAWAEDPEVLFKNKGCVACHAIDTKMVGPAYKDVAAKFAGQAGAEAELAQRIKNGSQGVWGPIPMPPNAVSDDEAQTLAKWVLSQK | 0.72 kcal/mol/K | 60.8 kcal/mol | 62.6 °C | – | – | –
Cytochrome c-552 wild type, P15452 (protein) MKKFLLVAVVGLAGITFANEQLAKQKGCMACHDLKAKKVGPAYADVAKKYAGRKDAVDYLAGKIKKGGSGVWGSVPMPPQNVTDAEAKQLAQWILSIK | – | – | – | 0.54 kcal/mol/K | 69.5 kcal/mol | 94 °C
